Measurements published in patent US20100260668A1 (published 2010).

T1: PlGF (UniProt P49763-2 21-149, limits assumed)
T1 construct: bought antigen coated on the ELISA plate; also called Placental GF
T1 sequence (looked up): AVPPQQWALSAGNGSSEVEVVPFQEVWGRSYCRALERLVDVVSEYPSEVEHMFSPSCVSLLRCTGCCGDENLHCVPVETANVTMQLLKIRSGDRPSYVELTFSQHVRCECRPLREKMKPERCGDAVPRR

B1: DVD561 (bispecific antibody, human IgG1, kappa)
heavy: not shown
light: AIQMTQSSSSFSVSLGDRVTITCKASEDIYNRFAWYQQKPGNAPRLLISGAASLEAGVPSRFSGSGSGQDYTLSITSLQTEDVATYYCQQYWSTPWTFGGGTKLEIKRTVAAPDIQMTQSPSSLSASVGDRVTITCRASQVIRRSLAWYQQKPGKAPKLLIYAASNLASGVPSRFSGSGSGTDFTLTISSLQPEDFATYYCQQSNTSPLTFGQGTKVEIKRTVAAPSVFIFPPSDEQLKSGTASVVCLLNNFYPREAKVQWKVDNALQSGNSQESVTEQDSKDSTYSLSSTLTLSKADYEKHKVYACEVTHQGLSSPVTKSFNRGEC
notes: outer AB074 (PlGF), inner AB071 (VEGF); HC linker long, LC linker short; also called DVD-Ig DVD561
B2: DVD583 (bispecific antibody, human IgG1, kappa)
heavy: not shown
light: DIVLTQSPDSLAVSLGERVTMNCKSSQSLLNSGMRKSFLAWYQQKPGQSPKLLIYWASTRESGVPDRFTGSGSGTDFTLTISSVQAEDVAVYYCKQSYHLFTFGSGTKLEIKRTVAAPSVFIFPPDIQMTQSPSSLSASVGDRVTITCRASQVIRRSLAWYQQKPGKAPKLLIYAASNLASGVPSRFSGSGSGTDFTLTISSLQPEDFATYYCQQSNTSPLTFGQGTKVEIKRTVAAPSVFIFPPSDEQLKSGTASVVCLLNNFYPREAKVQWKVDNALQSGNSQESVTEQDSKDSTYSLSSTLTLSKADYEKHKVYACEVTHQGLSSPVTKSFNRGEC
notes: outer AB047 (PlGF), inner AB071 (VEGF); HC linker long, LC linker long; also called DVD-Ig DVD583
B3: DVD543 (bispecific antibody, human IgG1, kappa)
heavy: not shown
light: AIQMTQSSSSFSVSLGDRVTITCKASEDIYNRFAWYQQKPGNAPRLLISGAASLEAGVPSRFSGSGSGQDYTLSITSLQTEDVATYYCQQYWSTPWTFGGGTKLEIKRTVAAPDIQMTQSPSSLSASVGDRVTITCRASQDVSTAVAWYQQKPGKAPKLLIYSASFLYSGVPSRFSGSGSGTDFTLTISSLQPEDFATYYCQQSYTTPPTFGQGTKVEIKRTVAAPSVFIFPPSDEQLKSGTASVVCLLNNFYPREAKVQWKVDNALQSGNSQESVTEQDSKDSTYSLSSTLTLSKADYEKHKVYACEVTHQGLSSPVTKSFNRGEC
notes: HC linker short, LC linker short; also called DVD-Ig DVD543
B4: DVD559 (bispecific antibody, human IgG1, kappa)
heavy: not shown
light: B3 light
notes: HC linker long, LC linker short; also called DVD-Ig DVD559
B5: DVD551 (bispecific antibody, human IgG1, kappa)
heavy: not shown
light: AIQMTQSSSSFSVSLGDRVTITCKASEDIYNRFAWYQQKPGNAPRLLISGAASLEAGVPSRFSGSGSGQDYTLSITSLQTEDVATYYCQQYWSTPWTFGGGTKLEIKRTVAAPSVFIFPPDIQMTQSPSSLSASVGDRVTITCRASQDVSTAVAWYQQKPGKAPKLLIYSASFLYSGVPSRFSGSGSGTDFTLTISSLQPEDFATYYCQQSYTTPPTFGQGTKVEIKRTVAAPSVFIFPPSDEQLKSGTASVVCLLNNFYPREAKVQWKVDNALQSGNSQESVTEQDSKDSTYSLSSTLTLSKADYEKHKVYACEVTHQGLSSPVTKSFNRGEC
notes: HC linker long, LC linker long; also called DVD-Ig DVD551
B6: DVD581 (bispecific antibody, human IgG1, kappa)
heavy: not shown
light: DIVLTQSPDSLAVSLGERVTMNCKSSQSLLNSGMRKSFLAWYQQKPGQSPKLLIYWASTRESGVPDRFTGSGSGTDFTLTISSVQAEDVAVYYCKQSYHLFTFGSGTKLEIKRTVAAPSVFIFPPDIQMTQSPSSLSASVGDRVTITCRASQDVSTAVAWYQQKPGKAPKLLIYSASFLYSGVPSRFSGSGSGTDFTLTISSLQPEDFATYYCQQSYTTPPTFGQGTKVEIKRTVAAPSVFIFPPSDEQLKSGTASVVCLLNNFYPREAKVQWKVDNALQSGNSQESVTEQDSKDSTYSLSSTLTLSKADYEKHKVYACEVTHQGLSSPVTKSFNRGEC
notes: HC linker long, LC linker long; also called DVD-Ig DVD581
B7: DVD468 (bispecific antibody, human IgG1, kappa)
heavy: not shown
light: DIQMTQSPSSLSASVGDRVTITCRASQVIRRSLAWYQQKPGKAPKLLIYAASNLASGVPSRFSGSGSGTDFTLTISSLQPEDFATYYCQQSNTSPLTFGQGTKVEIKRTVAAPDIQMTQSPSSLSASVGDRVTITCRASQDVSTAVAWYQQKPGKAPKLLIYSASFLYSGVPSRFSGSGSGTDFTLTISSLQPEDFATTYYCQQSYTGTVTFGQGTKVEIKRTVAAPSVFIFPPSDEQLKSGTASVVCLLNNFYPREAKVQWKVDNALQSGNSQESVTEQDSKDSTYSLSSTLTLSKADYEKHKVYACEVTHQGLSSPVTKSFNRGEC
notes: DVD-Ig; outer AB071 (VEGF), inner AB015 (DLL4); HC short, LC short linker; also called DVD468H; DVD468L
B8: DVD492 (bispecific antibody, human IgG1, kappa)
heavy: not shown
light: DIQMTQSPSSLSASVGDRVTITCRASQVIRRSLAWYQQKPGKAPKLLIYAASNLASGVPSRFSGSGSGTDFTLTISSLQPEDFATYYCQQSNTSPLTFGQGTKVEIKRTVAAPDIQMTQSSSYLSVSLGGRVTITCKASDHINNWLAWYQQKPGNAPRLLISGATSLETGVPSRFSGSGSGKDYTLSITSLQTEDVATYYCQQYWSIPLTFGAGTKLELKRTVAAPSVFIFPPSDEQLKSGTASVVCLLNNFYPREAKVQWKVDNALQSGNSQESVTEQDSKDSTYSLSSTLTLSKADYEKHKVYACEVTHQGLSSPVTKSFNRGEC
notes: DVD-Ig; outer AB071 (VEGF), inner AB072 (DLL4); HC short, LC short linker; also called DVD492H; DVD492L
B9: DVD516 (bispecific antibody, human IgG1, lambda)
heavy: not shown
light: DIQMTQSPSSLSASVGDRVTITCRASQVIRRSLAWYQQKPGKAPKLLIYAASNLASGVPSRFSGSGSGTDFTLTISSLQPEDFATYYCQQSNTSPLTFGQGTKVEIKRTVAAPQAVVTQESALTTSPGETVTLTCRSSTGAVTTSNYANWVQEKPDHLFTGLIGGTNNRAPGVPARFSGSLIGDKAALTITGAQTEDEAIYFCALWYSNHWVFGGGTKLTVLGQPKAAPSVTLFPPSSEELQANKATLVCLISDFYPGAVTVAWKADSSPVKAGVETTTPSKQSNNKYAASSYLSLTPEQWKSHRSYSCQVTHEGSTVEKTVAPTECS
notes: DVD-Ig; outer AB071 (VEGF), inner AB073 (DLL4); HC short, LC short linker; also called DVD516H; DVD516L
B10: DVD512 (bispecific antibody, human IgG1, lambda, L234A L235A)
heavy: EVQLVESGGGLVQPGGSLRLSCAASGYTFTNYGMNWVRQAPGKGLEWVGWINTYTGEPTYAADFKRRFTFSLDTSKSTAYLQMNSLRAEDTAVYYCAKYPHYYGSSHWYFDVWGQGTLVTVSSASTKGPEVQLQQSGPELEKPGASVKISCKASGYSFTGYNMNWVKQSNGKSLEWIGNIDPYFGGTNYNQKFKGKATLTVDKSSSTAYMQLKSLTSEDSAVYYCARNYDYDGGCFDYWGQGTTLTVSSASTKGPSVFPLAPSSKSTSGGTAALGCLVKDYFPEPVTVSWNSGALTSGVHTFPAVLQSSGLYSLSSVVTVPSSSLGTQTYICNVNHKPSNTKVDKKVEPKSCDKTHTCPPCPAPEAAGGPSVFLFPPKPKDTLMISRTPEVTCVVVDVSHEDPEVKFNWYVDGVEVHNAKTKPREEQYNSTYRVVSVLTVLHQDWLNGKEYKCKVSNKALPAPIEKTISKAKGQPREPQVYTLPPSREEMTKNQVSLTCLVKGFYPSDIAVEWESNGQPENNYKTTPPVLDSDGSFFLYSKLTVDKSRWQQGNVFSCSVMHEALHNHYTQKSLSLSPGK
light: DIQMTQSPSSLSASVGDRVTITCSASQDISNYLNWYQQKPGKAPKVLIYFTSSLHSGVPSRFSGSGSGTDFTLTISSLQPEDFATYYCQQYSTVPWTFGQGTKVEIKRTVAAPQAVVTQESALTTSPGETVTLTCRSSTGAVTTSNYANWVQEKPDHLFTGLIGGTNNRAPGVPARFSGSLIGDKAALTITGAQTEDEAIYFCALWYSNHWVFGGGTKLTVLGQPKAAPSVTLFPPSSEELQANKATLVCLISDFYPGAVTVAWKADSSPVKAGVETTTPSKQSNNKYAASSYLSLTPEQWKSHRSYSCQVTHEGSTVEKTVAPTECS
notes: DVD-Ig; HC short, LC short linker; also called DVD512H; DVD512L
B11: DVD446 (bispecific antibody, human IgG1, kappa)
heavy: not shown
light: DIQMTQSPSSLSASVGDRVTITCRASQVIRRSLAWYQQKPGKAPKLLIYAASNLASGVPSRFSGSGSGTDFTLTISSLQPEDFATYYCQQSNTSPLTFGQGTKVEIKRTVAAPDIVMTQSPDSLAVSLGERATISCRASESVDNYGISFMKWFQQKPGQPPKLLIYAASNQGSGVPDRFSGSGSGTDFTLTISSLQAEDVAVYYCQQSKEVPWTFGGGTKVEIKRTVAAPSVFIFPPSDEQLKSGTASVVCLLNNFYPREAKVQWKVDNALQSGNSQESVTEQDSKDSTYSLSSTLTLSKADYEKHKVYACEVTHQGLSSPVTKSFNRGEC
notes: DVD-Ig; outer AB071 (VEGF), inner AB069 (DLL4); HC short, LC short linker; also called DVD446H; DVD446L
B12: DVD043 (bispecific antibody, human IgG1, kappa)
heavy: not shown
light: DIQMTQSPSSLSASVGDRVTITCSASQDISNYLNWYQQKPGKAPKVLIYFTSSLHSGVPSRFSGSGSGTDFTLTISSLQPEDFATYYCQQYSTVPWTFGQGTKVEIKRTVAAPDIQMTQSPSSLSASVGDRVTITCRASQDVSTAVAWYQQKPGKAPKLLIYSASFLYSGVPSRFSGSGSGTDFTLTISSLQPEDFATTYYCQQSYTGTVTFGQGTKVEIKRTVAAPSVFIFPPSDEQLKSGTASVVCLLNNFYPREAKVQWKVDNALQSGNSQESVTEQDSKDSTYSLSSTLTLSKADYEKHKVYACEVTHQGLSSPVTKSFNRGEC
notes: DVD-Ig; HC short, LC short linker; also called DVD043H; DVD043L
B13: DVD470 (bispecific antibody, human IgG1, kappa)
heavy: not shown
light: DIQMTQSPSSLSASVGDRVTITCSASQDISNYLNWYQQKPGKAPKVLIYFTSSLHSGVPSRFSGSGSGTDFTLTISSLQPEDFATYYCQQYSTVPWTFGQGTKVEIKRTVAAPSVFIFPPDIQMTQSPSSLSASVGDRVTITCRASQDVSTAVAWYQQKPGKAPKLLIYSASFLYSGVPSRFSGSGSGTDFTLTISSLQPEDFATTYYCQQSYTGTVTFGQGTKVEIKRTVAAPSVFIFPPSDEQLKSGTASVVCLLNNFYPREAKVQWKVDNALQSGNSQESVTEQDSKDSTYSLSSTLTLSKADYEKHKVYACEVTHQGLSSPVTKSFNRGEC
notes: DVD-Ig; also called VEGF and DLL4 DVD-Ig, HC linker long, LC linker long
B14: DVD482 (bispecific antibody, human IgG1, kappa)
heavy: not shown
light: B13 light
notes: DVD-Ig; also called VEGF and DLL4 DVD-Ig, HC linker short, LC linker long
B15: DVD476 (bispecific antibody, human IgG1, kappa)
heavy: not shown
light: B12 light
notes: DVD-Ig; also called VEGF and DLL4 DVD-Ig, HC linker long, LC linker short

Target: T2, VEGF (UniProt P15692 27-191, limits assumed)
T2 construct: bought antigen coated on the ELISA plate
T2 sequence (P15692 other isoform, or with tags, fused parts or gaps limits assumed): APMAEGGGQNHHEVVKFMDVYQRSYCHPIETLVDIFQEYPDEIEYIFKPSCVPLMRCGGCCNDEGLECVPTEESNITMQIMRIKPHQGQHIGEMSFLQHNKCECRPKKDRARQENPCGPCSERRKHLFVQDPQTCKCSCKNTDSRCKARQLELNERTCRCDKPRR
Assay: direct bind ELISA, C-terminal VD

EC50 [nM]	Binder
241	B1
560	B2
1120	B3
39.2	B4
1590	B5
35.9	B6

Target: T3, DLL4 ECD/His tag (R&D 1506-D4-050) (UniProt Q9NR61 27-529)
T3 construct: extracellular domain; Bought antigen coated on the ELISA plate; not shown: His tag
Assay: direct bind ELISA, DLL4 on plate; DLL4 VD C-term.; HC Short, LC Short

EC50 [nM]	Binder
2.28	B7
1.77	B8
4.33	B9
1.71	B10
13.9	B11
0.67	B12

Target: T1, PlGF
Assay: direct bind ELISA, N-terminal VD

EC50 [nM]	Binder
1.04	B1
0.32	B2
0.14	B3
0.13	B4
97	B5
0.39	B6

Target: T4, DLL4 (human, UniProt Q9NR61 27-685)
T4 construct: whole, on cells; also called human DLL4
Assay: flow cytometry on 293G-human DLL4 cells; DLL4 VD C-terminal

EC50 [nM]	Binder
1.72	B13
3.25	B14
11.7	B15
